Consider one molecule from patent US20220332804A1 (CSL INNOVATION, published 2022).

Residue numbers refer to the chain shown, from its start.

What all share (assay): SPR, antibody captured, C2 as analyte;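 also: biacore SPR at 37 °C, anti-C2 mAbs captured via goat anti-human IgG on CM5 chips, double-referenced sensorgrams fit to a 1:1 kinetic or steady-state model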
On the technique in general: SPR reads the build-up and loss of mass on a sensor chip optically.

One assay has as its target T1, human C2 K550A (human, UniProt P06681 21-752).
T1 sequence: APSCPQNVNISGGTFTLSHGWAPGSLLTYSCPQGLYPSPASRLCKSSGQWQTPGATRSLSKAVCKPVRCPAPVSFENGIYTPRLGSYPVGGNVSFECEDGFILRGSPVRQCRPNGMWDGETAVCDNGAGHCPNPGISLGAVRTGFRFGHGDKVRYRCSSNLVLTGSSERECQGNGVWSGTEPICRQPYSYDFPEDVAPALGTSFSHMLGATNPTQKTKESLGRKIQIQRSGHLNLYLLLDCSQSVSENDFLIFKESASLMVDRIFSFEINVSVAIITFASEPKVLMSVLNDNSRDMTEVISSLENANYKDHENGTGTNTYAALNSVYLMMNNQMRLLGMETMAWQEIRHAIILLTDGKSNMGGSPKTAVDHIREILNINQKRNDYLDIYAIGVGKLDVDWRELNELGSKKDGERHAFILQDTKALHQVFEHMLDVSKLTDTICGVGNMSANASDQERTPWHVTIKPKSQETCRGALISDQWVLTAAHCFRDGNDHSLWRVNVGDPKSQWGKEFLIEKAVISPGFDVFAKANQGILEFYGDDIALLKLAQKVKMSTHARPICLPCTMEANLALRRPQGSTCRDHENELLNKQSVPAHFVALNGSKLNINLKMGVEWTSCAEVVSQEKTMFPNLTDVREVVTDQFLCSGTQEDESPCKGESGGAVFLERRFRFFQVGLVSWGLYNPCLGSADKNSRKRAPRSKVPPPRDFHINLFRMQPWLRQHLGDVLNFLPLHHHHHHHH

For the next assay, the target named is T2, human C2 A444S (human, UniProt P06681 21-752).
T2 sequence: T1 sequence with A424S, A530K

The target in another assay is T3, human C2 R719A (human, UniProt P06681 21-752).
T3 sequence: T1 sequence with A530K, R699A

For the next assay, the target named is T4, human C2 H331A (human, UniProt P06681 21-752).
T4 sequence: T1 sequence with H311A, A530K

The term Kd denotes the free concentration of one partner at which half of the binding sites on the other are occupied at equilibrium, for simple one-to-one binding.

B1: RF16-226 (antibody, human IgG4 S228P, lambda)
heavy: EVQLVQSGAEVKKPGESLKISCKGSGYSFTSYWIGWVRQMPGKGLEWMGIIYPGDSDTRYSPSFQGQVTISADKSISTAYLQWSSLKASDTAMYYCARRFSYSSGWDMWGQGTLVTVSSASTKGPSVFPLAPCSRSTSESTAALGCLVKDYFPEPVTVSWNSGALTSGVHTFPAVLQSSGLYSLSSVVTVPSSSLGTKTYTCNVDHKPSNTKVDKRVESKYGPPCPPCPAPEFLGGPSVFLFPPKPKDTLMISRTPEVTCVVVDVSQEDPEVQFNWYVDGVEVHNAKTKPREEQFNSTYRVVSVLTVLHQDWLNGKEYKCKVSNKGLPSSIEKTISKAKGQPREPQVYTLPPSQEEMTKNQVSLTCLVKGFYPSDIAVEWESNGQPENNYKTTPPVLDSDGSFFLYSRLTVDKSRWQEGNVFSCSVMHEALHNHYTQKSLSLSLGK
light: SYELTQPPSVSVSPGQTARITCSGDALTSKYVAWYQQKSGLAPLLVIYEDTRRPSGIPAKFSGSSSGSVATLTISGAHGDDEADYYCYSTDASGHQRVFGGGTKLTVLSQPKAAPSVTLFPPSSEELQANKATLVCLISDFYPGAVTVAWKADGSPVKAGVETTKPSKQSNNKYAASSYLSLTPEQWKSHRSYSCQVTHEGSTVEKTVAPTECS
notes: pH-dependent anti-C2 antibody from a phage display library; also called WT
For B1, the results for the Kd in the assay with human C2 K550A, with human C2 A444S and in the assay with human C2 R719A were 15 nM, 19.8 nM and 8.5 nM, respectively. The binding result with human C2 H331A was “no binding”.
